Measured values taken from patent US20220249633A1.

biological target: HLA-A*24 (human); experiment: UV-exchange ELISA, exchange yield grade

Binder | peptide exchange yield
QFITSTNTF [… (SEQ ID NO: 357)] | > 75%
YYSEVPVKL [… (SEQ ID NO: 358)] | 50 to 75%
AYSHLRYVF [… (SEQ ID NO: 371)] | 20 to 49%
SYAELGTTI [… (SEQ ID NO: 363)] | 20 to 49%
VFSPDGHLF [… (SEQ ID NO: 360)] | 50 to 75%
GYISNGELF [… (SEQ ID NO: 373)] | 50 to 75%
KYTDYILKI [… (SEQ ID NO: 375)] | 50 to 75%
QYTPHSHQF [… (SEQ ID NO: 377)] | 50 to 75%
NYMPGQLTI [… (SEQ ID NO: 356)] | > 75%
TYADIGGLDNQI [… (SEQ ID NO: 361)] | 50 to 75%
NYGVLHVTF [… (SEQ ID NO: 359)] | > 75%
QYLELAHSL [… (SEQ ID NO: 366)] | 50 to 75%
VFIDHPVHL [… (SEQ ID NO: 365)] | > 75%
VYVIEPHSMEF [… (SEQ ID NO: 372)] | 50 to 75%
LYQDHMQYI [… (SEQ ID NO: 367)] | 20 to 49%
VFLPRVTEL [… (SEQ ID NO: 374)] | 20 to 49%
RFIGIPNQF [… (SEQ ID NO: 370)] | 50 to 75%
KYLNENQLSQL [… (SEQ ID NO: 364)] | 50 to 75%
VYTPVASRQSL [… (SEQ ID NO: 376)] | 50 to 75%
VYNYAEQTL [… (SEQ ID NO: 362)] | 20 to 49%
IYVTGGHLF [… (SEQ ID NO: 355)] | 50 to 75%
VYTHEVVTL [… (SEQ ID NO: 369)] | 50 to 75%
KYQNVKHNL [… (SEQ ID NO: 368)] | 50 to 75%

Further lines, results first:

peptide exchange yield | Binder
50 to 75% | KYTEKLEEI [… (SEQ ID NO: 387)]
50 to 75% | IYGEKTYAF [… (SEQ ID NO: 388)]
50 to 75% | KYPASSSVF [… (SEQ ID NO: 381)]
> 75% | VYTGIDHHW [… (SEQ ID NO: 380)]
> 75% | VFIAQGYTL [… (SEQ ID NO: 379)]
50 to 75% | AYLPPLQQVF [… (SEQ ID NO: 382)]
50 to 75% | VYIAELEKI [… (SEQ ID NO: 378)]
50 to 75% | QYIEELQKF [… (SEQ ID NO: 385)]
50 to 75% | TFSDVEAHF [… (SEQ ID NO: 386)]
50 to 75% | RYFDVGLHNF [… (SEQ ID NO: 384)]
50 to 75% | RYKPGEPITF [… (SEQ ID NO: 383)]
